Measured values taken from patent US20260132218A1 (A AND G PHARMACEUTICAL, published 2026).

Experiments:
[1] = target: T1, human recombinant His-tagged HER2 extracellular domain (human, UniProt P04626 23-652); experiment: competition EIA on coated HER2, competitor trastuzumab-biotin; given as ED50
T1 construct: extracellular domain; also called HER2-ECD; HER-ECD
Description: (§1) Method: 96 well high binding EIA plates were coated with 10 ng of HER2 protein overnight at 4 C. […] After washing, colorimetric substrate 3,3′,5,5′-tetramethylbenzidine (TMB) was added and absorbance at 620 nm was determined after 10 minutes.

HER2 on SKBR3 cells = HER2 on SKBR3 cells (human, UniProt P04626 23-1255); experiment: cell-based or functional assay
[2] = target: T1, human recombinant His-tagged HER2 …; experiment: blocking ELISA (competition EIA): HER2 protein coated on the plate, pre-incubated with the antibody, then competitor anti-HER2 TRAST-biotin, streptavidin-HRP; signal as % of h.IgG
Description: as §1

IC50 [1] [µg/mL]	Migration assay, at 50 ug/ml (inhibition of migration of SKBR3 cells) (HER2 on SKBR3 cells) [%]	Internalization: Fluorescent Units (HER2 on SKBR3 cells) [Fluorescent Units]	IC50 (read off the curve) [2] [µg/mL]	Binder	Killing assay at 0.3 ug/ml Ab (2 nM), DM1 (6 nM), 72 hr (HER2 on SKBR3 cells) [%]
0.09	38	–	–	2A2 (antibody, IgG2a, V domains shown, also called AGRD017-2A2; fully human 2A2 antibody) VH: EVQLVESGGGLVQPGRSLRLSCAASGFTFDDYAMHWVRQAPGKGLEWVSGISWNGGTLGYADSVKGRFTISRDNAKNSLYLQMNSLRAEDTALYYCAKDTGSYSHWYFDLWGRGTLVTVSS VL: EIVMTQSPATLSVSPGERATLSCRASQSVRSNLAWYQQKPGQAPRLLIYGASTRATGIPARFSGSGSGTEFTLTISSLHSEDFAVYYCQQYNNWPTFGQGTKVEIK	–
0.04	45	9000	–	12E3 (antibody, IgG1, V domains shown, also called AGRD017-12E3; fully human 12E3 antibody) VH: EVQLVGSGGGLVQPGRSLRLSCAASGFTFDDYAMHWVRQAPGKGLEWVSGISWNGGTLGYAGSVKGRFTISRDNAKNSLYLQMNSLRAEDTALYYCAKDTGSYSHWYFDLWGRGTLVTVSS VL: EIVMTQSPATLSVSPGERATLSCRASQSVRSNLAWYQQKPGQAPRLLIYGASTRATGIPARCSGSGSGTEFTLTISSLQSEDFAVYYCQQYNNWPTFGQGTKVEIK	–
–	59	–	~0.1	2D7 (antibody, IgG1, V domains shown, also called AGRD017-2D7; fully human 2D7 antibody) VH: EVQLVESGGGLVQPGRSLRLSCAASGFTFDDYAMHWVRQAPGKGLEWVSGISWNSGTMGYAGSVKGRFTISRDNAKNSLYLQMNSLRAEDTALYYCAKDTGSYSHWYFDLWGRGTLVTVSS VL: not shown	50
0.06	24	–	–	3G7 (antibody, IgG1, V domains shown, also called AGRD017-3G7; fully human 3G7 antibody) VH: EVQLVESGGGLVQPGRSLRLSCAASGFTFDDYAMHWVRQAPGKGLEWVSGVSWNGGTMGYAGSVKGRFTISRDNAKNSLYLQMNSLRAEDTALYYCAKDTGSYSHWYFDLWGRGTLVTVSS VL: EIVMTQSPATLSVSPGERATLSCRASQSVRSNLAWYQQKPGQAPRLLIYGASTRATGIPGRFSGSGSGTEFILTISSLQSEDFAVYYCQQYNNWPTFGQGTKVEIK	–
0.1	32	–	–	8C1 (antibody, IgG2a, V domains shown, also called AGRD017-8C1; fully human 8C1 antibody) VH: EVQLVESGGGLVQPGRSLRLSCTASGFTFDDYAMHWVRQAPGKGLEWVSGISWNGGTLGYADSVKGRFTISRDNAKNSLYLQMNSLRAEDTALYYCAKDTGSYSHWYFDLWGRGTLVTVSS VL: EIVMTQSPATLSVSPGERATLSCRASQSVRSNLAWYQQKPGQAPRLLIYGASTRATGIPARFSGSGSGTEFTLTISSLHSEDFAVYYCQQYNNWPTFGQGTKVEIK	–
0.06	32	–	–	11D7 (antibody, V domains shown, Hybridoma antibody from TC-mAb mice; also called AGRD017-11D7; fully human 11D7 antibody) VH: EVQLVESGGGLVQPGRSLRLSCAASGFTFDDYAMHWVRQAPGKGLEWVSGIAWNGGILGYADSVKGRFTISRDNAKNSLYLQMNSLRAEDTALYYCAKDTGSYSHWYFDLWGRGTLVTVSS VL: EIVMTQSPATLSVSPGERATLSCRASQSVRSNLAWYQQKPGQAPRLLIYGASTRATGIPARFSGSGSGTEFTLTISSLQSEDFAVYCCQQYNNWPTFGQGTKVEIK	–
